According to the supplement of paper PMC7125110:
± gives the standard error. For some assays here: Fewer inactive variants are shown than the library holds.

B1: glmS ribozyme (parent)
chain: AUAAAAGCGCCAGAACUACAGAAAUGUAGUUGACGAGGAGGAGGUUUAUCGAAUUUUCGGCGGAUGCCUCCAAA

Experiments:
Details in all cases: with glucosamine-6-phosphate
[1] = variants of: B1; test: kcat; higher = faster cleavage; RNA array
Outline: (§1)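 The measurements used barcoded ribozyme variants on sequenced MiSeq chips, transcribed in situ by E. coli RNA polymerase and tracked at 37 °C with a hybridised Cy3 probe. Glucosamine-6-phosphate, 40 μM to 10 mM in HEPES/KCl/Mg(OAc)2 buffer, was flowed in while tiles were imaged over ~14 h. Baseline-normalised signals, also normalised to non-cleaving reference variants, gave per-tile medians that were fit to one- or two-exponential decays for kobs. kcat and KM resulted from weighted Michaelis–Menten fits across concentrations.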

[2] = variants of: B1; test: self-cleavage kobs at 640 uM GlcN6P; higher = faster cleavage; RNA array
Outline: as §1

[3] = variants of: B1; test: self-cleavage kobs at 2500 uM GlcN6P; higher = faster cleavage; RNA array
Outline: as §1

[4] = variants of: B1; test: self-cleavage kobs at 10000 uM GlcN6P; higher = faster cleavage; RNA array
Outline: as §1

[5] = variants of: B1; test: KM; higher = weaker cofactor use; RNA array
Outline: as §1

[6] = variants of: B1; test: self-cleavage kobs at 160 uM GlcN6P; higher = faster cleavage; RNA array
Outline: as §1

[7] = variants of: B1; test: self-cleavage kobs at 40 uM GlcN6P; higher = faster cleavage; RNA array
Outline: as §1

Variant | kcat [1] [s⁻¹] | self-cleavage kobs at 640 uM GlcN6P [2] [s⁻¹] | self-cleavage kobs at 2500 uM GlcN6P [3] [s⁻¹] | self-cleavage kobs at 10000 uM GlcN6P [4] [s⁻¹] | KM [5] [µM] | self-cleavage kobs at 160 uM GlcN6P [6] [s⁻¹] | self-cleavage kobs at 40 uM GlcN6P [7] [s⁻¹]
C16A A53U | 0.00183 ± 0.0008 | 0.000241 ± 6.3e-05 | 0.00116 ± 0.00029 | 0.00118 ± 0.00035 | – | – | –
C16U C67G C68U | 6.15e-05 ± 1.2e-05 | 7.27e-05 ± 2.2e-05 | 6.31e-05 ± 2.8e-05 | 5.02e-05 ± 1.9e-05 | – | – | –
C16G C68G | 1.82e-05 ± 5.5e-06 | – | – | – | – | – | –
C16G C68U | 0.000168 ± 6e-06 | 7.49e-05 ± 1.2e-05 | 0.000125 ± 1.6e-05 | 0.00016 ± 2.3e-05 | 778 ± 79 | 3.33e-05 ± 1.5e-05 | –
C16G C68A | 2.15e-05 ± 6.1e-06 | – | – | – | – | – | –
G29A G32U | 0.00277 ± 0.00084 | 7.58e-05 ± 1.8e-05 | 0.000325 ± 5.7e-05 | 0.000888 ± 0.00014 | – | – | –
C19A A42G | 0.00828 ± 0.0016 | 0.00596 ± 0.0022 | – | – | 164 ± 59 | – | 0.00166 ± 0.00056
C16U G59A | 6.33e-05 ± 4e-06 | – | 4.86e-05 ± 1.2e-05 | 5.59e-05 ± 6.3e-06 | 1180 ± 390 | – | –
C16U C70G | 0.000316 ± 9.7e-05 | 0.000186 ± 1.6e-05 | 0.000619 ± 0.00016 | 0.000497 ± 0.00011 | – | 9.18e-05 ± 8.2e-06 | 4.19e-05 ± 6.7e-06
C16U U46A U54G C70A | 0.000156 ± 2.4e-05 | 6.86e-05 ± 2.2e-05 | 0.000143 ± 3.9e-05 | 0.000124 ± 5e-05 | 743 ± 300 | – | –
C16G G29A | 0.00419 ± 0.00058 | 0.00103 ± 0.00015 | 0.00212 ± 0.00039 | 0.00387 ± 0.00066 | 1940 ± 370 | 0.000295 ± 5.2e-05 | 9.85e-05 ± 1.6e-05
C16U A48C | 0.000297 ± 6.4e-05 | 3.07e-05 ± 1.2e-05 | 0.000142 ± 2.4e-05 | 0.000203 ± 3.1e-05 | 3910 ± 1700 | – | –
G29A | 0.00814 ± 0.00078 | 0.00201 ± 9.3e-05 | 0.00558 ± 0.00024 | 0.00697 ± 0.00023 | 1590 ± 200 | 0.000639 ± 6.2e-05 | 0.000207 ± 4.5e-06
G29C | 0.0045 ± 0.0012 | 0.000839 ± 4.1e-05 | 0.00239 ± 0.0001 | 0.00377 ± 0.00011 | 2300 ± 720 | 0.000212 ± 8.4e-06 | 8.88e-05 ± 1.6e-06
G29A A52U | 0.0001272 ± 9.8e-07 | 2.42e-05 ± 1.1e-05 | 5.99e-05 ± 1.4e-05 | 9.97e-05 ± 1.3e-05 | 2770 ± 58 | – | < 1e-05
G29A A52G | 0.000368 ± 9e-05 | 5.31e-05 ± 8.1e-06 | 0.000207 ± 2.8e-05 | 0.000255 ± 3.8e-05 | 3290 ± 1300 | – | –

Variant | kcat [1] [s⁻¹] | self-cleavage kobs at 640 uM GlcN6P [2] [s⁻¹] | self-cleavage kobs at 2500 uM GlcN6P [3] [s⁻¹] | self-cleavage kobs at 10000 uM GlcN6P [4] [s⁻¹] | KM [5] [µM] | self-cleavage kobs at 160 uM GlcN6P [6] [s⁻¹] | self-cleavage kobs at 40 uM GlcN6P [7] [s⁻¹]
C16U U31G | 0.0126 ± 0.0042 | 0.00226 ± 0.00062 | 0.00478 ± 0.00085 | 0.0111 ± 0.0031 | 3460 ± 1500 | 0.00118 ± 0.00045 | 0.000138 ± 2.7e-05
C16G U47G C50G C68G | 1.23e-05 ± 1.9e-06 | – | – | – | – | – | –
C16G G40U | 0.00053 ± 2.1e-05 | 6.22e-05 ± 1.1e-05 | 0.000171 ± 2.7e-05 | 0.000357 ± 4.2e-05 | 4960 ± 340 | – | –
C16G U57G | 2.25e-05 ± 2.8e-06 | – | – | – | – | – | < 1e-05
C16U C34A C50G U56C | 1.31e-05 ± 1.9e-06 | – | – | – | – | – | –
C16U G40U | 0.00189 ± 0.00089 | 0.00095 ± 0.00016 | 0.00106 ± 0.00024 | 0.00317 ± 0.0006 | – | 0.000209 ± 5e-05 | 0.000134 ± 2e-05
C16A U65G | 0.000487 ± 7.9e-05 | 8.78e-05 ± 1.8e-05 | 0.000156 ± 5.5e-05 | 0.000382 ± 5.9e-05 | 3310 ± 1000 | – | –
G29A U45C | 0.000385 ± 7.7e-05 | 8.28e-05 ± 1.4e-05 | 0.000273 ± 4.1e-05 | 0.000293 ± 5e-05 | 2000 ± 720 | 3.6e-05 ± 1.4e-05 | –
C16U G32U | 0.0024 ± 0.00062 | 0.000214 ± 3.2e-05 | 0.000519 ± 5.8e-05 | 0.00137 ± 0.00015 | 8100 ± 2900 | 4.18e-05 ± 1e-05 | –
C16U G32C | 0.000168 ± 3e-05 | – | 7.33e-05 ± 1.4e-05 | 0.000119 ± 1.2e-05 | 3960 ± 1900 | – | –
C16U G66U | 0.00129 ± 0.00016 | 0.000375 ± 4.5e-05 | 0.000956 ± 0.00011 | 0.00105 ± 0.00011 | 1550 ± 340 | 9.95e-05 ± 2e-05 | 3.86e-05 ± 7.8e-06
C16U U57G | 7.51e-05 ± 1.3e-05 | 3.61e-05 ± 1.3e-05 | 4.22e-05 ± 8.4e-06 | 7.03e-05 ± 1.1e-05 | – | – | –
C16G G37A | 0.000832 ± 0.00041 | 3.76e-05 ± 1.2e-05 | 0.000292 ± 6.6e-05 | 0.000396 ± 4.9e-05 | – | – | –
C16A U31G C70U | 0.00025 ± 1.3e-05 | 0.000157 ± 3e-05 | 0.000242 ± 6.1e-05 | 0.000235 ± 4.9e-05 | 351 ± 54 | 7.99e-05 ± 2.2e-05 | –
G29A U31C | 0.000716 ± 0.00016 | 0.000161 ± 3e-05 | 0.000333 ± 7.1e-05 | 0.000668 ± 0.00012 | 2070 ± 780 | 7.58e-05 ± 2e-05 | –
